According to patent US20240109974A1 (SHANDONG SIMCERE BIOPHARMACEUTICAL, published 2024):

Biological target: T1, human TNFR2 (Novoprotein, Cat #C830) (human, UniProt P20333 23-257, limits assumed)
T1 construct: construct not described; also called human TNFR2 protein
T1 sequence (looked up): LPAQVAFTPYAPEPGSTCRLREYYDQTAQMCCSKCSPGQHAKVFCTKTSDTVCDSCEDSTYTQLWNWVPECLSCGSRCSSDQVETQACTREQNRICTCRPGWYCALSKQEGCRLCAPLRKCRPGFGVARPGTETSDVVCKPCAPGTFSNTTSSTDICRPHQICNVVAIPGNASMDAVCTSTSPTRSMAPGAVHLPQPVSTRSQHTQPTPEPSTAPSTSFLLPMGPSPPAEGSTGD
Assay: competition ELISA: antibody titrated against human TNFα-Biotin on coated human TNFR2 (Novoprotein), detection with Streptavidin-HRP [panel C]
Experimental: 1 μg/ml human TNFR2 (Novoprotein, Cat #C830) was pre-coated with 100 μl/well […] in an ELISA plate. All the test TNFR2 antibodies were subjected to 2.5-fold gradient dilution from the highest concentration of 30 μg/ml; the diluted antibodies were mixed with 15 ng/ml human TNFα-Biotin (Acro Biosystem, Cat #TNA-H82E3) in equal volume, respectively; the resulting mixture was added to the ELISA plate at 100 μl/well, and incubated with shaking at room temperature for 2.0 hours. The plate was washed, and then a Streptavidin-HRP working solution (diluted at 1:10000) was added at 100 μl/well, and the mixture was incubated with shaking at room temperature for 40 minutes. The plate was washed again, and then the substrate TMB of HRP was added to develop colour. A stop solution was added to stop the reaction, and then a microplate reader (MD 13) was used to read the absorbance value. The inhibitory curve of an antibody was drawn with antibody concentration as the abscissa and corresponding OD value as the ordinate, and fitted with four parameters (GraphPad Prism9) to calculate the IC50 value. The smaller the IC50 value, the stronger the ability of an antibody to inhibit the binding of human TNFα to human TNFR2. The blocking effect of a humanized antibody was normalized to its corresponding human-murine chimeric antibody WT. […]

B1: 224-WT (antibody, V domains shown)
VH: EVQLQESGPEIVKPGASVKLSCTASGFNNKDIYMHWVKQRPEQGLEWIGRIDPATGNTKHDPKFQDKATLSSDTSSNTAYLQFSSLTSEDTAVYYCAHSPYGDFGAMDYWGQGTTVTVSS
VL: DIQMTQSPAIMSASLGERVTMTCTASSSVSSNYLHWYQQKPGSSPKLWIYSTSNLPSGVPARFSGSGSGTSYSLTISSMEAEDAATYYCHQYHRSPWTFGGGTKLEIK
notes: Human-murine chimeric wild-type molecule; also called human-murine chimeric antibody WT of #224
IC50 (read off the curve): ~0.5 µg/mL
